Measured values taken from patent CN110003338A (BEIJING MIANYI FANGZHOU MEDICINE TECH CO LTD, dated 2019).

T1: 人OX40 (expressed on cells: transfected 293T cells; HEK::OX40 100B5 cells) (human, UniProt P43489 29-277)
T1 construct: whole, on cells; also called hOX40
T1 sequence (looked up): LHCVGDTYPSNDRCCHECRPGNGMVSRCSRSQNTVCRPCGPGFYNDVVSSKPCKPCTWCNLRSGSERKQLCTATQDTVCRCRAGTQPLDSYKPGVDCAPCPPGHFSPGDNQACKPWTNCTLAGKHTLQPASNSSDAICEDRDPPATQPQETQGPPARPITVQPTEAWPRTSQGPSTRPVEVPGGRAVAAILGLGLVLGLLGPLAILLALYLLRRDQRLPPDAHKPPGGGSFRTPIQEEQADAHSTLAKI

B1: 抗OX40单克隆抗体6A6 (antibody, V domains shown)
VH: EVQLQQSGPELVKPGASVKISCKASGYSFTGYYMNWVKQSPEKSLEWIGEINPSTGGTTYNQKFKAKATLTVDKSSSTAYMQLKSLTSEDSAVYYCARSGLPYYDVDYWGQGTTLTVSS
VL: DIQMTQSPSSLSASLGERVSLTCRASQEISGYLSWLHQKPDGTIKRLIYAASTLDSGVPKRFSGSRSGSDYSLTISSLESEDFADYYCLQYASYPLTFGAGTNLELK
notes: Mouse hybridoma monoclonal antibody
B2: 抗OX40单克隆抗体4F2 (antibody, V domains shown)
VH: DVQLQESGPGLVKPSQSLSLTCSVTGYSITSGYNWNWIRQFPGNKLEWMGYISYDGSNNYNPSLKNRISITRDTSKNQFFLKLNSVTTEDTATYYCARQGSSGHFYYAMDYWGQGTSVTVSS
VL: DIVMTQAHKFMSTSVGDRVSITCKASQDVSSAVAWYQQKPGQSPKLLIYWASIRHTGVPDRFTGSGSGTDYTLTISSVQAEDLALYYCQQHYSTPWTFGGGTKLEIK
notes: Mouse hybridoma monoclonal antibody (Balb/c x SP2/0); Constant regions are mouse; it was detected with anti-mouse IgG Fc and mIgG1 served as isotype control

Target: T1, 人OX40 (expressed on cells: transfected …)
Assay: Flow cytometry on 293T cells expressing human OX40, antibody 1 µg/mL final, APC anti-mouse IgG Fc

Binder	binding result
B1	binds
B2	binds
